According to PMC9376891 (Nature Communications, 2022):

Molecular target: SARS-CoV-2 ORF6 C3 + YP (SARS-CoV-2 | SARS-CoV)
Assay: ITC
Conditions: both partners purified

Chain of SARS-CoV-2 ORF6 C3 + YP (SARS-CoV-2 | SARS-CoV) (P52948 157-213): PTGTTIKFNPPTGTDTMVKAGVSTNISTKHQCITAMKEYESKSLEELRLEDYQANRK

B1: Rae1(31-368)-Nup98(157-213) heterodimer (complex)
chain 1: DIEVTSSPDDSIGCLSFSPPTLPGNFLIAGSWANDVRCWEVQDSGQTIPKAQQMHTGPVLDVCWSDDGSKVFTASCDKTAKMWDLSSNQAIQIAQHDAPVKTIHWIKAPNYSCVMTGSWDKTLKFWDTRSSNPMMVLQLPERCYCADVIYPMAVVATAERGLIVYQLENQPSEFRRIESPLKHQHRCVAIFKDKQNKPTGFALGSIEGRVAIHYINPPNPAKDNFTFKCHRSNGTNTSAPQDIYAVNGIAFHPVHGTLATVGSDGRFSFWDKDARTKLKTSEQLDQPISACCFNHNGNIFAYASSYDWSKGHEFYNPQKKNYIFLRNAAEELKPRNKK
chain 2: not shown
notes: also called Rae1-Nup98; Rae1-Nup98 complex
B1 showed a Kd of 200 nM.
